Usually EC50 stands for the midpoint of the concentration-response curve.

Residue numbers refer to the chain shown, from its start. In names and notes the source's numbering stands.

To fix the notation:
B1: huNRG1(S177-S228)(NRGE1C)::3x(G4Q)::huFcSEFL2 (Pb): Fc fusion of NRG1 variant SEQ ID NO:116 (protein)
chain: STYRCVSVLTVLHQDWLNGKEYKCKVSNKALPAPIEKTISKAKGQPREPQVYTLPPSREEMTKNQVSLTCLVKGFYPSDIAVEWESNGQPENNYKTTPPVLDSDGSFFLYSKLTVDKSRWQQGNVFSCSVMHEALHNHYTQKSLSLSPGK
modifications: huNRG1(S177-S228)(NRGE1C)::3x(G4Q)::huFcSEFL2 (Pb)
B2: huNRG1(S177-S228)(wt)::3x(G4Q)::huFcSEFL2 (Pb): Fc fusion of wild-type NRG1 fragment S177-S228 (protein)
chain: B1 chain
modifications: huNRG1(S177-S228)(wt)::3x(G4Q)::huFcSEFL2 (Pb)
B3: huNRG1(S177-F229)(NRGE1C) 6xHis: 6xHis-tagged NRG1 variant SEQ ID NO:117 (protein)
chain: SHLVKCGEKHKSFCVNGGECFMIEGPSNPSRYLCKCPNEFTGDRCQEDFMASFGGGGEGGGGAGGGGHHHHHH
modifications: 6xHis tag; huNRG1(S177-F229)(NRGE1C) 6xHis
B4: huNRG1(S177-F229)(NRGE1C) (E47K_D48T_F49S_M50L) 6xHis: 6xHis-tagged NRG1 variant SEQ ID NO:120 (protein)
chain: B3 chain with E47K, D48T, F49S, M50L
modifications: 6xHis tag; huNRG1(S177-F229)(NRGE1C) (E47K_D48T_F49S_M50L) 6xHis
B5: huNRG1(S177-F229)(NRGE1D) 6xHis: 6xHis-tagged NRG1 variant SEQ ID NO:126 (protein)
chain: B3 chain with K9S, F21Y, I23V, P26S, N28I
modifications: 6xHis tag; huNRG1(S177-F229)(NRGE1D) 6xHis
B6: huNRG1(S177-F229)(NRGE1C) (D48T_F49Q_M50I) 6xHis: 6xHis-tagged NRG1 variant SEQ ID NO:118 (protein)
chain: B3 chain with D48T, F49Q, M50I
modifications: 6xHis tag; huNRG1(S177-F229)(NRGE1C) (D48T_F49Q_M50I) 6xHis
B7: huNRG1(S177-F229)(NRGE1C) (E47A_D48P_F49H_M50I) 6xHis: 6xHis-tagged NRG1 variant SEQ ID NO:119 (protein)
chain: B3 chain with E47A, D48P, F49H, M50I
modifications: 6xHis tag; huNRG1(S177-F229)(NRGE1C) (E47A_D48P_F49H_M50I) 6xHis
B8: huNRG1(S177-F229)(NRGE1C) (E47S_D48A_F49L_M50T) 6xHis: 6xHis-tagged NRG1 variant SEQ ID NO:122; ErbB4 selective agonist without Fc of Example 3 (protein)
chain: B3 chain with E47S, D48A, F49L, M50T
modifications: 6xHis tag; huNRG1(S177-F229)(NRGE1C) (E47S_D48A_F49L_M50T) 6xHis
B9: huNRG1(S177-F229)(NRGE1C) (E47S_D48T_F49R_M50V) 6xHis: 6xHis-tagged NRG1 variant SEQ ID NO:123 (protein)
chain: B3 chain with E47S, D48T, F49R, M50V
modifications: 6xHis tag; huNRG1(S177-F229)(NRGE1C) (E47S_D48T_F49R_M50V) 6xHis
B10: :huNRG1(S177-F229)(NRGE1C)::2X(G4A)G4::huFcSEFL2v131(+): Fc fusion of NRG1 variant SEQ ID NO:117 (protein)
chain: SHLVKCGEKHKSFCVNGGECFMIEGPSNPSRYLCKCPNEFTGDRCQEDFMASFGGGGAGGGGAGGGGDKTHTCPPCPAPELLGGPSVFLFPPKPKDTLMISRTPEVTCVVVDVSHEDPEVKFNWYVDGVEVHNAKTKPCEEQYGSTYRCVSVLTVLHQDWLNGKEYKCKVSNKALPAPIEKTISKAKGQPREPQVYTLPPSREKMTKNQVSLTCLVKGFYPSDIAVEWESNGQPENNYKTTPPVLKSDGSFFLYSKLTVDKSRWQQGNVFSCSVMHEALHNHYTQKSLSLSPGKDKTHTCPPCPAPELLGGPSVFLFPPKPKDTLMISRTPEVTCVVVDVSHEDPEVKFNWYVDGVEVHNAKTKPCEEQYGSTYRCVSVLTVLHQDWLNGKEYKCKVSNKALPAPIEKTISKAKGQPREPQVYTLPPSREEMTENQVSLTCLVEGFYPSDIAVEWESNGQPENNYETTPPVLDSDGSFFLYSDLTVDKSRWQQGNVFSCSVMHEALHNHYTQKSLSLSPGK
modifications: huNRG1(S177-F229)(NRGE1C) ::2X(G4A)G4::huFcSEFL2v131(+)
B11: :huNRG1(S177-F229)(NRGE1C)::2X(G4E)G4::huFcSEFL2v131(+): Fc fusion of NRG1 variant SEQ ID NO:117 (protein)
chain: B10 chain with A58E, A63E
modifications: huNRG1(S177-F229)(NRGE1C) ::2X(G4E)G4::huFcSEFL2v131(+)
B12: :huNRG1(S177-F229)(NRGE1D)::2X(G4E)G4::huFcSEFL2v131(+): Fc fusion of NRG1 variant SEQ ID NO:126 (protein)
chain: B10 chain with K9S, F21Y, I23V, P26S, N28I, A58E, A63E
modifications: huNRG1(S177-F229)(NRGE1D) ::2X(G4E)G4::huFcSEFL2v131(+)
B13: :huNRG1(S177-F229)(NRGE1D)::2X(G4A)G4::huFcSEFL2v131(+): Fc fusion of NRG1 variant SEQ ID NO:126 (protein)
chain: B10 chain with K9S, F21Y, I23V, P26S, N28I
modifications: huNRG1(S177-F229)(NRGE1D) ::2X(G4A)G4::huFcSEFL2v131(+)

T1 sequence (Q62956 26-1308): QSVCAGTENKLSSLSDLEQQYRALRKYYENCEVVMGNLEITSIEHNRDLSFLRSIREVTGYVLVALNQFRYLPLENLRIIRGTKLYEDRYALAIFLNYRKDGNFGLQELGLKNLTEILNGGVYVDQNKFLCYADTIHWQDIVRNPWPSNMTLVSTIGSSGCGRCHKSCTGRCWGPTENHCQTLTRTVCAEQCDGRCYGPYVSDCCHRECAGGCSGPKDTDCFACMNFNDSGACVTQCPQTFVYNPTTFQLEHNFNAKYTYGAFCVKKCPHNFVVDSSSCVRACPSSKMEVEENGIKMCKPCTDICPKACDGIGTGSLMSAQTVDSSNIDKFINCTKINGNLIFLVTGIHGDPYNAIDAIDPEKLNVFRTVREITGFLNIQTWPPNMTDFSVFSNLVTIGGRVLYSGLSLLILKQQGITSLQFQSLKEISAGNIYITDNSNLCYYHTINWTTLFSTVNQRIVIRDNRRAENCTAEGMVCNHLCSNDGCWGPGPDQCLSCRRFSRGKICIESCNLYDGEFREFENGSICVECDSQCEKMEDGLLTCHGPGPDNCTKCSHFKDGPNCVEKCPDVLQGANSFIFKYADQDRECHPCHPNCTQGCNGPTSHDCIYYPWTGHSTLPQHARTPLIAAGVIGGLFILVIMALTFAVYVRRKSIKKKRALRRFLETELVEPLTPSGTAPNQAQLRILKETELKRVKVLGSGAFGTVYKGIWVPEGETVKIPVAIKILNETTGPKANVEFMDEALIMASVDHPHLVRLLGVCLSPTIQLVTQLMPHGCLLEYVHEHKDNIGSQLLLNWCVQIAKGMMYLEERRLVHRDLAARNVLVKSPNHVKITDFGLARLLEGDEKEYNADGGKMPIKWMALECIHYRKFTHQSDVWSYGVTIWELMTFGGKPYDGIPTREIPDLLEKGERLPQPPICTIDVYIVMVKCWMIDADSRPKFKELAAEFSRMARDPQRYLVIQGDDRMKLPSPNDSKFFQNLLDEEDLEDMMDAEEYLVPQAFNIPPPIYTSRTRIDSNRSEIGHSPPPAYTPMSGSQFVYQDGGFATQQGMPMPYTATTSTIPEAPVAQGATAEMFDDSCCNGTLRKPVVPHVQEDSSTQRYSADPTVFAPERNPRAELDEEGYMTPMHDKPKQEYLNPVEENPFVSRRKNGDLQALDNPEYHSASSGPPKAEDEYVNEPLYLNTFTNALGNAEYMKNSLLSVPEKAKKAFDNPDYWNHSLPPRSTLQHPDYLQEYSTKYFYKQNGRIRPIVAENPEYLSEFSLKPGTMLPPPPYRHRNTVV
T1 sequence (P06494 23-1257 partner): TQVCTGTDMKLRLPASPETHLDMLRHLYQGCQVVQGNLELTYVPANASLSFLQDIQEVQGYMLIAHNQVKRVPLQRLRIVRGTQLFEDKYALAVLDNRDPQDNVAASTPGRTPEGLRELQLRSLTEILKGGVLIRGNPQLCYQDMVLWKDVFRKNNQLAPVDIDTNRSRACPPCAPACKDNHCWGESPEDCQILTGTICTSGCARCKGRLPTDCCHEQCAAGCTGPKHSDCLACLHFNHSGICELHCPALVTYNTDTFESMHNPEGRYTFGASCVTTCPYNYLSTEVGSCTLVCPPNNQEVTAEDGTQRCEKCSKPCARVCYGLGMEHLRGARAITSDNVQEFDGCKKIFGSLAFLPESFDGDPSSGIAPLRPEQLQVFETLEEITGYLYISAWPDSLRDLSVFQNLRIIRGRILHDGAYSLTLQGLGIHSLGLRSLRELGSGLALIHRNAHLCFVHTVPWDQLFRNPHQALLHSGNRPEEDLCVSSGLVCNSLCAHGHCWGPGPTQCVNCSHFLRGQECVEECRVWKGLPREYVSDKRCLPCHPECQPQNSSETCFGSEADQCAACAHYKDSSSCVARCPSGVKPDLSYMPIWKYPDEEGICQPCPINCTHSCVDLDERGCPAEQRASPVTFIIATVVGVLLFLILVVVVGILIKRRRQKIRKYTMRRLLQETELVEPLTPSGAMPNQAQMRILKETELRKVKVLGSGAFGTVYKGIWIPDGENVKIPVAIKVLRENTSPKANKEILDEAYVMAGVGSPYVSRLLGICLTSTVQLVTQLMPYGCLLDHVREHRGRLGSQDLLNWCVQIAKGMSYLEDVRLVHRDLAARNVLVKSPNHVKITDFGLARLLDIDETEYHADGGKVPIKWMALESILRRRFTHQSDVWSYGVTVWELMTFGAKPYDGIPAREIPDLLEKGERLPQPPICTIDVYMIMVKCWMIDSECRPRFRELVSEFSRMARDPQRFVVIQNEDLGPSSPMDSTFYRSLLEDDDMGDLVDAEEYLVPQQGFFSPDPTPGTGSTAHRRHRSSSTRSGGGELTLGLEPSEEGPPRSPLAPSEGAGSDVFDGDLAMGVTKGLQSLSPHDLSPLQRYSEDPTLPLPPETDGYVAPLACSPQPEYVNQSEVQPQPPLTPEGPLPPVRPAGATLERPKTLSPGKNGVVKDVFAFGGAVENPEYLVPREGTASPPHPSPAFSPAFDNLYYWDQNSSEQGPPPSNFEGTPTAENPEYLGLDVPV

The first assay addresses T1, ErbB4 (Rattus norvegicus, UniProt Q62956).
T1 construct: forming the ErbB2/ErbB4 complex in cardiomyocytes and the ErbB2/ErbB3 complex in Schwann cells; endogenous in cells; host or cells: primary neonatal rat cardiomyocytes (Sprague Dawley pups, 0 to 4 days old)
Description: In vitro phosphorylation of Akt in neonatal rat cardiomyocytes. Type of assay: cell-based. Particulars: Akt (Serine 473) phosphorylation, neonatal rat cardiomyocytes, 15 minutes treatment; read-out: Cardiomyocyte (CM) (ErbB4) Avg EC50. The method, then:
(§1) In Vitro Phosphorylation of Akt in Neonatal Rat Cardiomyocytes and Rat Schwann Cells by Neuregulin Variants
(§2) Specificity of neuregulin variants towards cardiomyocytes (ErbB4) versus Schwann cells (ErbB3) was tested by measuring Akt activity generated by formation of the ErbB2/ErbB4 and ErbB2/ErbB3 complexes. Upon activation by neuregulin, the ErbB4 and ErbB3 receptors dimerize preferentially with the ErbB2 co-receptor, forming the ErbB2/ErbB4 complex in cardiomyocytes and the ErbB2/ErbB3 complex in Schwann cells, both of which signal through the Akt pathway. Neonatal rat cardiomyocytes were isolated from hearts of Sprague Dawley rat pups at 0 to 4 days old according to manufacturer's protocol using the Neomyt kit and plated on Surecoat plates in NS media containing serum (all from Cellultron Life Technologies, Baltimore, MD). Rat Schwann cells were plated in Poly-D-Lysine coated plates with Dulbecco's modified Eagle's media (DMEM) supplemented with fetal bovine serum (Thermo Fisher) and forskolin (Millipore Sigma).
(§3) After a 24-hour incubation in a humidified incubator maintained at 37° C. and 5% CO2, cardiomyocytes and Schwann cells were washed with serum free media and incubated an additional 16 hours in DMEM supplemented with bovine serum albumin (Sigma). Both cell lines were then treated with titrations of the neuregulin variant molecules for 15 minutes, upon which cells were lysed in lysis buffer (Meso Scale Discovery (MSD)). For detection of Akt phosphorylation, lysates were added to the Multi-Spot 96-Well 4-Spot Phospho (Serine 473)/Total Akt plates (MSD), incubated according to the manufacturer's protocol and read in the SECTOR Imager 6000 (MSD). For both cell assays, the percent phosphorylation of Akt was calculated by multiplying the phospho Akt signal by 2, then dividing by the phospho Akt signal added to the total Akt signal and then multiplying by 100. The phosphorylation of Akt data points were fitted using a log (agonist) versus response, variable slope (4 parameters) analysis in GraphPad Prism to generate EC50 curves. The CM % agonism reflect the top value of the data points.
Regarding B1, the EC50 turned out to be 14.8 nM.
With B2, the EC50 amounted to 2.6 nM.
Still for that read-out and setting: in the case of B3 it was 1.44 nM; in that of B4, 0.825 nM.
Same read-out and setting: in the case of B5 it was 0.39 nM; in that of B6, 0.712 nM.
For B7, the EC50 was 1.1 nM.
Still for that read-out and setting: in the case of B8 it was 0.695 nM; in that of B9, 0.58 nM.
Still for that read-out and setting: in the case of B10 it was 3.4 nM; in that of B11, 2.9 nM.
Same read-out and setting: in the case of B12 it was 1.9 nM.
Turning to B13, the 50% effective concentration (EC50) was found to be 2 nM.

Still in this assay, the particulars now being: ratio of EC50s Schwann cells/cardiomyocytes.
Regarding B1, the “Selectivity SC/CM” value amounted to 53.
For the molecule B2, the “Selectivity SC/CM” value amounted to 0.03.
In the case of B3, the “Selectivity SC/CM” value was over 10000.
As for B4, the “Selectivity SC/CM” value is over 10000.
Regarding B5, the “Selectivity SC/CM” value is over 10000.
Still for that read-out and setting: in the case of B6 it was over 10000.
Still for that read-out and setting: in the case of B7 it was over 10000; in that of B8, over 10000; in that of B9, over 10000.
The same measure, in the same setting: in the case of B10 it was over 10000.
Turning to B11, the “Selectivity SC/CM” value was over 10000.
As for B12, the “Selectivity SC/CM” value is given as over 10000.
The same measure, in the same setting: in the case of B13 it was over 10000.

Still in this assay, the particulars now being: top value of the Akt phosphorylation data points in cardiomyocytes; wild-type control 100.
For the molecule B3, the “CM % Agonism AVG” value came to 106%.
In the case of B4, the “CM % Agonism AVG” value was 91.82%.
On the same count and under the same terms, in the case of B5 it was 90.65%.
Same read-out and setting: in the case of B6 it was 105.7%; in that of B7, 96.47%.
For the molecule B8, the “CM % Agonism AVG” value amounted to 85.89%.
On the same count and under the same terms, in the case of B9 it was 87.47%; in that of B10, 91.6%; in that of B11, 94%.
The same measure, in the same setting: in the case of B12 it was 91.9%.
On the same count and under the same terms, in the case of B13 it was 87.1%.

The target of the next assay is T2, ErbB3 (Rattus norvegicus, UniProt Q62799).
T2 construct: forming the ErbB2/ErbB4 complex in cardiomyocytes and the ErbB2/ErbB3 complex in Schwann cells; endogenous in cells; host or cells: rat Schwann cells
T2 sequence (Q62799 20-1339): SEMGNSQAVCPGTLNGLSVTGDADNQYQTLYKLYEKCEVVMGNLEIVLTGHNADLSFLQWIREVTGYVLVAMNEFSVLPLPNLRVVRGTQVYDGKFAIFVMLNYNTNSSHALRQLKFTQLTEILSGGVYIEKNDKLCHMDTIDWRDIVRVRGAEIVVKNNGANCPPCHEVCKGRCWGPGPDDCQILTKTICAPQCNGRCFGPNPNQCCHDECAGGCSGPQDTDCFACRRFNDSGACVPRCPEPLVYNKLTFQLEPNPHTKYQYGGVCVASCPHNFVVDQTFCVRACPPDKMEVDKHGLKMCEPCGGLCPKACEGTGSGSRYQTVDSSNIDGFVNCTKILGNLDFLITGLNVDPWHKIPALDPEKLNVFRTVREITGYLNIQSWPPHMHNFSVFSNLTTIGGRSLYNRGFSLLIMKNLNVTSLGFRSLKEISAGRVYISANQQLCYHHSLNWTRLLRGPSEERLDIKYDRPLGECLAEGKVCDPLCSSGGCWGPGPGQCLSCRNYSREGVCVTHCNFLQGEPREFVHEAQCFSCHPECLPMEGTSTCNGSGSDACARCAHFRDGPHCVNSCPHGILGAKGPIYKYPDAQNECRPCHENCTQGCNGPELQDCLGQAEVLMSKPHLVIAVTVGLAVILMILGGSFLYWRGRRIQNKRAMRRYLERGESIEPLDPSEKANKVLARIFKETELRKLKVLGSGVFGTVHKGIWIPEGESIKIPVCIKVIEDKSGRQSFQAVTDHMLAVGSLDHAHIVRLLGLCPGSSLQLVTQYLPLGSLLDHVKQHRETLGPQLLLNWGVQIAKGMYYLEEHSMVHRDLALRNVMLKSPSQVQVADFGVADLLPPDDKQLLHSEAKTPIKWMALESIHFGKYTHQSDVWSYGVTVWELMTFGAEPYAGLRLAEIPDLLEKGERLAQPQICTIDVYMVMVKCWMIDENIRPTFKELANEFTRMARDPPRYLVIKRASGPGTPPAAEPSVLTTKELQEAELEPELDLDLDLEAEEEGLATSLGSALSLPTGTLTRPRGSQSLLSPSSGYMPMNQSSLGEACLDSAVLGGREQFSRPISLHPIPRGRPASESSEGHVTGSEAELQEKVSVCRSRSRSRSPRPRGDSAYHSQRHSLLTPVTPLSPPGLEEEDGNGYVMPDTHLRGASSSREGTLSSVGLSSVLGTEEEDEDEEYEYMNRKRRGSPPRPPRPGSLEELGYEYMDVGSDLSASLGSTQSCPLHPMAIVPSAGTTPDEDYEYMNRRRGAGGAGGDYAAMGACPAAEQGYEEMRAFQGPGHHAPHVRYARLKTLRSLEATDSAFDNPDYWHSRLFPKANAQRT
T2 sequence (P06494 23-1257 partner): as the sequence (P06494 23-1257 partner) above
Description: In vitro phosphorylation of Akt in rat Schwann cells. Type of assay: cell-based. Particulars: Akt (Serine 473) phosphorylation, 15 minutes treatment. As to the method:
as §1, §2, §3
In the case of B10, the “Schwann cells (SC) (ErbB3) Avg EC50 (M)” value was “inactive”.
On to B11, for which the “Schwann cells (SC) (ErbB3) Avg EC50 (M)” value was “inactive”.
Still for that read-out and setting: in the case of B12 it was “inactive”.
Still for that read-out and setting: in the case of B13 it was “inactive”.

The assay is the same for the next values; noted with them: Akt (Serine 473) phosphorylation, 15 minutes treatment, read-out: Schwann cells (SC) (ErbB3) Avg EC50.
As for B1, the EC50 was 783 nM.
Take B2: the 50% effective concentration (EC50) was 0.07 nM.
The same measure, in the same setting: in the case of B3 it was 10000 nM.
With B4, the 50% effective concentration (EC50) is 10000 nM.
On to B5, for which the EC50 was 10000 nM.
Still for that read-out and setting: in the case of B6 it was 10000 nM; in that of B7, 10000 nM.
Still for that read-out and setting: in the case of B8 it was 10000 nM; in that of B9, 10000 nM.

These data come from patent US12692294B2, “Engineered NRG-1 variants with improved selectivity toward ErbB4 but not against ErbB3” (Amgen Inc., priority 2021, dated 2026).
